Experimental data as given in patent US20190002503A1 (published 2019).
Starred links: 1 amine or outer side, 2 acyl side, 3 side chain; linkers in the order of their positions; H or OH if unused. Positions of bridges follow the written chain, without caps; N, C: chain ends. Groups on a side chain read outwards from the residue. *: point of attachment. γGlu = O=C(O)[C@H](CCC(=O)[*:2])N[*:1]; Palmitoyl = CCCCCCCCCCCCCCCC(=O)*; Isovaleryl = CC(C)CC(=O)*

T1: human ferroportin (SLC40A1) fused in frame with GFP, stably expressed in HEK293 cells (human, UniProt Q9NP59 1-571)
T1 sequence (looked up): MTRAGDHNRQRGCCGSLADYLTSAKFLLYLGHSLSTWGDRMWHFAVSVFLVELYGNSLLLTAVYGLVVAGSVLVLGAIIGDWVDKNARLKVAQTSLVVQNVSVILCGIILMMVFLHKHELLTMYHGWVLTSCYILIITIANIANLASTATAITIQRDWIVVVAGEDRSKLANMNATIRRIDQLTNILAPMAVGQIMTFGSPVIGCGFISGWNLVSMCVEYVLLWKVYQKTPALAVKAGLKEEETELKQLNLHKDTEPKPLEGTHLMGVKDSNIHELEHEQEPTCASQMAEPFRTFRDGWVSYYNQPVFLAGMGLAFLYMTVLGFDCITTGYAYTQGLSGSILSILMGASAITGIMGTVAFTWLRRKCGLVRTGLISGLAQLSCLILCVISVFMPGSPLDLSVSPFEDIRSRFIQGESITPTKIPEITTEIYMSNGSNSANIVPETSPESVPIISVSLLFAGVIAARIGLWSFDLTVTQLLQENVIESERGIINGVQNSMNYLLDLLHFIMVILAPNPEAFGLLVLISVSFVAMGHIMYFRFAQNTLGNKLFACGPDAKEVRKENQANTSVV

B1: Compound 18 (peptide)
peptide: DTHFPCIKFKPRSKGCK
modifications: N-terminal isovaleric acid; Lys 10 carries PEG11-Lauric acid; C-terminal NH2 (amide)
B2: Compound 13 (peptide)
peptide: DTHFPCIKFKPRSKGCK
modifications: N-terminal isovaleric acid; Lys 10 carries isoGlu-Myristic acid; C-terminal NH2 (amide)
B3: Compound 15 (peptide)
peptide: DTHFPCIKFKPRSKGCK
modifications: N-terminal isovaleric acid; Lys 10 carries isoGlu-Isovaleric acid; C-terminal NH2 (amide)
B4: Compound 10 (peptide)
peptide: DTHFPCIKFKPRSKXC
modifications: N-terminal isovaleric acid; Lys 10 carries IsoGlu-Palm; Sar (sarcosine) at 15; C-terminal NH2 (amide)
B5: Compound 6 (peptide)
peptide: DTHFPCIKFKPRSKXCK
modifications: N-terminal isovaleric acid; Lys 10 carries IsoGlu-Palm; Sar (sarcosine) at 15; C-terminal NH2 (amide)
B6: Compound 24 (peptide)
peptide: DTHFPCIKFKPRSKXCK
modifications: N-terminal isovaleric acid; Lys 10 carries Ahx-Palm; Sar (sarcosine) at 15; C-terminal NH2 (amide)
B7: Compound 14 (peptide)
peptide: DTHFPCIKFKPRSKGCK
modifications: N-terminal isovaleric acid; Lys 10 carries isoGlu-Bioitin (biotin); C-terminal NH2 (amide)
B8: Compound 12 (peptide)
peptide: DTHFPCIKFKPRSKGCK
modifications: N-terminal isovaleric acid; Lys 10 carries isoGlu-Lauric acid; C-terminal NH2 (amide)
B9: Compound 19 (peptide)
peptide: DTHFPCIKFKPRSKGCK
modifications: N-terminal isovaleric acid; Lys 10 carries PEG11-Myristic acid; C-terminal NH2 (amide)
B10: Compound 32 (peptide)
peptide: DTHFPCIKFXX
modifications: N-terminal isovaleric acid on each subunit; the two subunits are joined by IDA-[βala] that carries Peg11-Palm
B11: Compound 31 (peptide)
peptide: DTHFPCIKFXX
modifications: N-terminal isovaleric acid on each subunit; the two subunits are joined by IDA-[βala] that carries Peg2-Palm
B12: RI-Mini Hepcidin (peptide)
peptide: FICIPFHTD
modifications: all residues are D-amino acids (retro inverse of mini-hepcidin); C-terminal NH2 (amide)

These binders were tested against T1, human ferroportin (SLC40A1) fused in … (assay: cell-based or functional assay).

HEK-GFP cell based assay: potency EC50 (loss of ferroportin-GFP fluorescence) [nM] | Binder
22 | Isovaleryl-DTHFPCKKFK([γGlu-Palmitoyl])PRSKGCK-NH2 (disulfide 6-16 (inferred)) [Compound 11]
19 | DTHFPCIKFKPRSKGCK (N-terminal isovaleric acid; Lys 10 carries Palm; C-terminal NH2 (amide)) [Compound 20]
36 | B1
10 | B2
26 | B3
18 | DTHFPCIKFKPRSKGCK (N-terminal isovaleric acid; Lys 10 carries Ahx-Palm; C-terminal NH2 (amide)) [Compound 22]
10 | B4
11 | B5
36 | DTHFPCIKFKPRSKGCK (N-terminal isovaleric acid; Lys 10 carries PEG2-Palm; C-terminal NH2 (amide)) [Compound 16]
11 | DTHFPCIKFKPRSKGC (N-terminal isovaleric acid; Lys 10 carries IsoGlu-Palm; C-terminal NH2 (amide)) [Compound 9]
10 | B6
29 | B7
14 | B8
14 | DTHFPCIKFKPRSKGCK (N-terminal isovaleric acid; Lys 10 carries Ac (acetyl); C-terminal NH2 (amide)) [Compound 25]
32 | DTHFPCIKFKPRSKGCK (N-terminal isovaleric acid; Lys 10 carries PEG8; C-terminal NH2 (amide)) [Compound 21]
30 | DTHFPCIKFKPRSKGCK (N-terminal isovaleric acid; Lys 10 carries PEG11-Palm; C-terminal NH2 (amide)) [Compound 17]
30 | B9

Target: T1, human ferroportin (SLC40A1) fused in …
Experiment: cell-based or functional assay
Remark: another data set of the same source

HEK-GFP cell based assay: potency EC50 (loss of ferroportin-GFP fluorescence) [nM] | Binder
13 | B10
18 | Isovaleryl-DTHFPCIRFK([γGlu-Octanoic acid])-NH2 (also: dimer: two subunits joined at their C-termini through the Lys linker) [Compound 30]
8 | B11

Target: T1, human ferroportin (SLC40A1) fused in …
Experiment: cell-based or functional assay
Remark: another data set of the same source

Potency EC50 (nM), ferroportin degradation in ferroportin-GFP HEK293 cells [nM] | Binder
712 | H-DTHFPICIF-NH2 [Mini-Hepcidin 1-9]
> 10000 | B12
